Laboratory results reported in article PMC10975569.

T1: ostreolysin A6 (P. ostreatus) (UniProt P83467)
T1 sequence: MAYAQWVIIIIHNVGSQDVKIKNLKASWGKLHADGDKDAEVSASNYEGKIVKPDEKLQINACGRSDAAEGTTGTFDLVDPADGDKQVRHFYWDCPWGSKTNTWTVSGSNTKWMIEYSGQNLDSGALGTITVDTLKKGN


Columns and labels:
[1] = molecular target: heterolysin A (H. irregulare TC 32-1)
[2] = molecular target: T1, ostreolysin A6 (P. ostreatus)

Molecule | time of 100% hemolysis of bovine red blood cells, pH 6.0; NudA 1, 0.1 and 0.01 µM, NudA:NudB 10:1 (0.7 to 48.8 min) (nudolysin A (L. nuda)) [min] | time of 100% hemolysis of bovine red blood cells, pH 7.0; NudA 1 and 0.1 µM, NudA:NudB 10:1 (0.7 to 11.1 min); at 0.01 µM 100% hemolysis did not occur (nudolysin A (L. nuda)) [min] | time of 100% hemolysis of bovine red blood cells, pH 8.0; NudA 1 µM, NudA:NudB 10:1; at 0.1 and 0.01 µM 100% hemolysis did not occur (nudolysin A (L. nuda)) [min] | time of 100% hemolysis of bovine red blood cells, pH 6.0; HetA 1, 0.1 and 0.01 µM, HetA:PlyB 10:1 (0.7 to 9.8 min) [1] [min] | time of 100% hemolysis of bovine red blood cells, pH 7.0; HetA 1 and 0.1 µM, HetA:PlyB 10:1 (1.3 to 8.2 min); at 0.01 µM 100% hemolysis did not occur [1] [min] | time of 100% hemolysis of bovine red blood cells, pH 8.0; HetA 1 and 0.1 µM, HetA:PlyB 10:1 (0.7 to 5.3 min); at 0.01 µM 100% hemolysis did not occur [1] [min] | time of 100% hemolysis of bovine red blood cells, pH 6.0; OlyA6 1, 0.1 and 0.01 µM, OlyA6:PlyB 10:1 (0.7 to 2.7 min) [2] [min] | time of 100% hemolysis of bovine red blood cells, pH 7.0; OlyA6 1, 0.1 and 0.01 µM, OlyA6:PlyB 10:1 (0.7 to 20.6 min) [2] [min] | time of 100% hemolysis of bovine red blood cells, pH 8.0; OlyA6 1, 0.1 and 0.01 µM, OlyA6:PlyB 10:1 (0.7 to 26.4 min) [2] [min]
nudolysin B (Δ30NudB) (domain or fragment) | 48.8 | 11.1 | 2 | – | – | – | – | – | –
pleurotolysin B (Δ48PlyB) (domain or fragment) SQAGDTLNDVIQDPTRRNKLINDNNLLKGIIMGRDGPVPSSRELIVRPDTLRAIINNRATIETTTMEAEFTETLMESNYNSASVKVSAPFITANSEYSESSSFKNTETEKSMYTSSRYLFPQGRIDFTTPDSGFDDVIKLSPQFTSGVQAALAKATGTEKREALQNLFQEYGHVFRTKVHIGGVLSAHTMETFSRSENETEVKQDVKAGLEGAVKGWGGGATAGHGNTQGTITTSQNRKLNVKYIVNGGDYTKIQNTEEWVASTNQSEHWRVIEVTEVTAVADLLPQPIRGQVKDLLKPLLGKWVDVEKVPGLESLPVSVYRPKGAIPAGWFWLGDTADASKALLVKPTLPARSGRNPALTSLHQGSGMTEQPFVDLPQYQYLSTYFGSFAHDTPPGSTLRGLRPDHVLPGRYEMHGDTISTAVYVTRPVDVPFPEDECFDLKSLVRVKLPGSGNPPKPRSALKKSMVLFDSGEK | – | – | – | 9.8 | 8.2 | 5.3 | 2.7 | 20.6 | 26.4
